Laboratory results reported in patent US8796209B2, “Compositions and methods related to anti-FGF agents” (The Regents of the University of California, priority 2005, dated 2014).
Entries after “also recorded” stand apart in the source; their conditions may differ.

Columns and labels:
Balb 3T3 cells [1] = assay: DNA synthesis by BrdU incorporation; format: cell-based, mouse; conditions: for effect of the mutation on FGF-1 induced BrdU incorporation: 5 ng/ml, 5 μg/ml heparin, 24 h; for DNA synthesis: phenotype of FGF-1 mutants, Table 2
Description: Balb 3T3 cells were plated on cover slips in 6-well culture plates, serum starved (DMEM, 0.4% fetal calf serum) for 48 h, and stimulated with 5 ng/ml wild-type and mutant FGF-1s in the presence of 5 μg/ml heparin for 24 h. BrdU was added to the medium for the last 6 h of the incubation. Cells were fixed and incubated with anti BrdU antibody. BrdU incorporated cells were stained with DAB. The mean value of BrdU positive cells from wild type-treated culture was set to 100%, and the corresponding results from mutant-treated cultures were scaled accordingly. Results are shown as means±S.D. Asterisks indicate significant differences (p<0.05) compared with wild type treatment.
DNA synthesis was measured by BrdU incorporation. Balb 3T3 cells were plated on sterile cover slips in 6-well culture plates and serum starved in DMEM supplemented with 0.4% fetal calf serum for 48 h, and stimulated with 5 ng/ml wild type and mutant FGF-1s for 24 h in the presence and absence of 5 μg/ml heparin. BrdU (10 μg/ml) was added to the medium for the last 6 h of the incubation. Cells were then fixed with 70% ethanol and incubated with 2N HCI. After the medium was neutralized with 0.1 M borate buffer (pH 8.5), the cells were incubated with anti-BrdU antibody (BD PharMingen, San Diego, Calif.). BrdU incorporated cells were stained with HRP conjugated secondary antibody (Biorad) and metal enhanced diaminobenzidine substrate kit (Pierce, Rockford, Ill.). Diaminobenzidine positive and negative cells were counted from the digital images of three independent fields.

FRS2α = assay: FRS2 phosphorylation, western blot; format: cell-based; conditions: mouse fibroblasts
Description: The same cell lysates as described above were analyzed by western blotting with anti-phospho FRS2 or anti-FRS2, where; 1: Wild type; 2: R50E; 3: 4xE; 4: 3xA; 5: None; and 6: FBS.
This experiment tested how the FGF1 mutations affect phosphorylation of FRS2α.

Balb 3T3 cells [2] = assay: Chemotaxis assay (Transwell); format: cell-based, mouse; conditions: for effect of the mutation on FGF-1-induced chemotaxis: 5 ng/ml, 24 h; for Chemotaxis: phenotype of FGF-1 mutants, Table 2
Description: The bottom of the polycarbonate filter of the Transwell apparatus was coated with 10 μg/ml of fibronectin. The lower chamber contained 600 μI of serum-free DMEM containing 5 ng/ml wild-type or mutants FGF-1. Balb 3T3 cells (10^5 cells/filter) were plated on filter and incubated 37° C. for 24 h, and cells were stained with crystal violet. Cells that migrated to the bottom side of the membrane were counted. Results are expressed as means of the number of migrated cells in 2 fields.
A polycarbonate filter of 8 μm pore size of the Transwell insert was coated with 10 μg/ml of fibronectin (Sigma) overnight at 4° C. After washing, the insert was placed into a 24-well cell culture plate, and the lower portion of the plate was filled with 600 μl of serum-free DMEM containing 5 ng/ml wild type or mutant FGF-1. Balb 3T3 cells (10^5 cells/filter) were plated on filter and incubated 37° C. for 24 h, and cells were visualized by crystal violet staining (0.5% crystal violet in 50 mM Borate, pH 9.0, and 2% ethanol). The uncoated side of each filter was wiped with a cotton swab to remove cells that had not migrated through the filter. Migrated cells were counted from the digital images of stained cells. Determining the mean number of cells counted per field. Results are expressed as means±SD of the relative cell number with non-stimulated cells set as 100).

integrin αvβ3 = target: T1, integrin αvβ3 (Homo sapiens, UniProt P05106+P06756); assay: Soluble integrin binding assay (ELISA-type), soluble αvβ3 on immobilized FGF; conditions: for effect of the mutation on binding of soluble αvβ3 to FGF-1: mutant coated to plate; for αvβ3 binding: phenotype of FGF-1 mutants, Table 2
T1 construct: using the soluble αv and β3 expression constructs provided by Tim Springer; made in house; host or cells: CHO K1
T1 sequence (P06756 31-992 limits assumed): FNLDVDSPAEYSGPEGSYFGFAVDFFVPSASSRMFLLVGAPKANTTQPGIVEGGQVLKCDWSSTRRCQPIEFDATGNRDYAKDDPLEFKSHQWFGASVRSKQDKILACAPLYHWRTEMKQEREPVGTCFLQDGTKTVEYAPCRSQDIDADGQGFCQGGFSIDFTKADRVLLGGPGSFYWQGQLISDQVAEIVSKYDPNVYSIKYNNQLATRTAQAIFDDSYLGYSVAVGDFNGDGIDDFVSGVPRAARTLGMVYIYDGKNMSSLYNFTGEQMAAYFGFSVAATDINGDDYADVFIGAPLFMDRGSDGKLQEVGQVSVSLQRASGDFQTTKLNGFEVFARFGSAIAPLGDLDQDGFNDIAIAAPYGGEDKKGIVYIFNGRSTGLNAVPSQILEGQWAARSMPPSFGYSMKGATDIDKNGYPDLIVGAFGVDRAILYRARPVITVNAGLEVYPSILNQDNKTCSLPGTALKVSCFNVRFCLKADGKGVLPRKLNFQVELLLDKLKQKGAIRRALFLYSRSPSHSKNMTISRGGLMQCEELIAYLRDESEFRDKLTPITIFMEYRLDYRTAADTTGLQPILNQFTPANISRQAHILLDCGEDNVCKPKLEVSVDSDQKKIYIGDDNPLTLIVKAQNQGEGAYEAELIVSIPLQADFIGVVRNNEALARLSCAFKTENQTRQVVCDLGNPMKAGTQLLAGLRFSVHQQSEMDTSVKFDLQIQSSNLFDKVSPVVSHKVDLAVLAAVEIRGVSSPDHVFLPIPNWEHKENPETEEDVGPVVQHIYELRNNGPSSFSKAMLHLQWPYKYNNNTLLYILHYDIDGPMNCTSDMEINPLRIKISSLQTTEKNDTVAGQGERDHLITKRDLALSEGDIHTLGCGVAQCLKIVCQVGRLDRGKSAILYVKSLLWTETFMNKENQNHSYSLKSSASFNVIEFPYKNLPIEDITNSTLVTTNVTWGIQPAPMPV
T1 sequence (P05106 27-718 limits assumed): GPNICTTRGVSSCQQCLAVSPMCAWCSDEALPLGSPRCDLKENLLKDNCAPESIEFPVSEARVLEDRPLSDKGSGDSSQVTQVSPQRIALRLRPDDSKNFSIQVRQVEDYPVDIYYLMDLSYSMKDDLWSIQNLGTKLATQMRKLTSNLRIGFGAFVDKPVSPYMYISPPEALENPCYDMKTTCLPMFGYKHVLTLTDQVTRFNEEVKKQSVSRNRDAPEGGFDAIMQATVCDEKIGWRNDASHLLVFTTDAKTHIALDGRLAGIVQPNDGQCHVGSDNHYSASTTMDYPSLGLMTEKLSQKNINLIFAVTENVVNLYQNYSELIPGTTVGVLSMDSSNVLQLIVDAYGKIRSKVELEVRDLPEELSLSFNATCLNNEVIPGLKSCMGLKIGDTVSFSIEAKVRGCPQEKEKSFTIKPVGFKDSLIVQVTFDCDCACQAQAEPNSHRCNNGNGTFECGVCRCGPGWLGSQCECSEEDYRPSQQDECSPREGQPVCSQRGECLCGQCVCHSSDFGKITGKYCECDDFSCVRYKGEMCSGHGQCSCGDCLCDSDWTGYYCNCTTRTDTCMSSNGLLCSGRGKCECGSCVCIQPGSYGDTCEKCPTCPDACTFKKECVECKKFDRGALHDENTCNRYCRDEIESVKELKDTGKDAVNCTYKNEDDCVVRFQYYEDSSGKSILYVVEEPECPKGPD
Description: Wells of 96-well microtiter plates were coated with 10 μg/ml FGF-1 or FGF-2 and remaining protein binding sites were blocked with 1 mg/ml BSA. Recombinant soluble αvβ3 (50 μl/well at 5 μg/ml in Hepes-Tyrode buffer supplemented with 1 mM MnCl2) was added to wells and incubated for 1 h at room temperature. Soluble αvβ3 was incubated with 10 μg/ml 7E3 (white bar) or mouse IgG (black bar) for 10 min on ice prior to adding to the wells. BSA (circle) was used as a negative control. Data is shown as means+/−SD of triplicate experiments.
FGF-1 (10 μg/m) was heat-treated at indicated temperature for 10 min prior to immobilization. Binding of soluble αvβ3 was determined as described in FIG. 1. Data is shown as percent binding+/−SD of triplicate experiments.
Amino acid residues in the integrin-binding site or in the FGFR-binding site were mutated individually or in groups. Wild-type (diamond), R50E (open square), N33A (closed square), 4xE (circle), 3xA (triangle) were coated to a plastic plate various concentration as indicated and the binding of soluble αvβ3 was determined as described in FIG. 2. BSA (cross) was used as a negative control. […] “4xE” represents the K127E/K128E/K133E/R134E mutant. “3xA” represents the E102A/Y109A/Q110A mutant.
Binding assays were performed as previously described (Takagi et al., 2001). Native or heat-denatured FGF-1 in 0.1 M carbonate buffer, pH 9.4, were incubated in a polystyrene 96-well non-tissue culture plates surface overnight at 4° C. Unbound FGF-1 was removed, and 200 μl of 0.1% bovine serum albumin in PBS was added and incubated for 60 min at room temperature. The wells were washed with PBS and soluble integrin αvβ3 in 50 μl in Hepes-Tyrode buffer supplemented with 1 mM Mn^2+ were added to the wells and incubated at room temperature for 60 min. After non-bound soluble integrin were removed by rinsing the wells with the same buffer. Horseradish peroxidase (HRP) conjugated anti His-tag mouse IgG was added to well and incubated 60 min. Non-bound antibodies were removed by rinsing the wells with the same buffer, bound integrins were quantified by measuring the absorbance of 450 nm developed from adding the substrate (3,3′,5,5′-tetramethylbenzidine) of HRP unbound protein was aspirated, and the wells were washed with PBS three times.

effect of the mutation on binding of soluble αvβ3 to FGF-1 (integrin αvβ3)	αvβ3 binding (integrin αvβ3)	binding of soluble αvβ3 to the immobilized protein (integrin αvβ3; coated at 10 μg/ml, soluble αvβ3 5 μg/ml, 1 mM MnCl2)	binding of soluble αvβ3 to heat-denatured protein (integrin αvβ3; heat-denatured, heat-treated 10 min before immobilization)	Molecule	effect of the mutation on FGF-1 induced BrdU incorporation (Balb 3T3 cells [1])	DNA synthesis (Balb 3T3 cells [1])	FRS2α phosphorylation (FRS2α)	effect of the mutation on FGF-1-induced chemotaxis (Balb 3T3 cells [2])	Chemotaxis (Balb 3T3 cells [2])
	Normal	bound	did not bind	Wild type: human FGF-1 (acidic FGF), wild type, expressed in E. coli		Normal	induced		Normal
effectively blocked	Low			4xE: FGF-1 mutant, Lys127/Lys128/Lys133/Arg134 simultaneously to Glu (protein) FNLPPGNYKKPKLLYCSNGGHFLRILPDGTVDGTRDRSDQHIQLQLSAESVGEVYIKSTETGQYLAMDTDGLLYGSQTPNEECLFLERLEENHYNTYISKKHAEKNWFVGLEENGSCEEGPRTHYGQKAILFLPLPVSSD	significantly blocked	Low	abolished	blocked	Low
did not affect	Normal			3xA: FGF-1 mutant, three residues in the FGFR binding site (Glu102/Tyr109/Asn110) to Ala (protein) FNLPPGNYKKPKLLYCSNGGHFLRILPDGTVDGTRDRSDQHIQLQLSAESVGEVYIKSTETGQYLAMDTDGLLYGSQTPNEECLFLARLEENHAATYISKKHAEKNWFVGLKKNGSCKRGPRTHYGQKAILFLPLPVSSD	also blocked	Low	abolished		Low

Molecule	effect of the mutation on binding of soluble αvβ3 to FGF-1 (integrin αvβ3)	αvβ3 binding (integrin αvβ3)	binding of soluble αvβ3 to the immobilized protein (integrin αvβ3; coated at 10 μg/ml, soluble αvβ3 5 μg/ml, 1 mM MnCl2)	binding of soluble αvβ3 to heat-denatured protein (integrin αvβ3; heat-denatured, heat-treated 10 min before immobilization)	effect of the mutation on FGF-1 induced BrdU incorporation (Balb 3T3 cells [1])	DNA synthesis (Balb 3T3 cells [1])	FRS2α phosphorylation (FRS2α)	effect of the mutation on FGF-1-induced chemotaxis (Balb 3T3 cells [2])	Chemotaxis (Balb 3T3 cells [2])
R50E: FGF-1 mutant with the Arg-50 to Glu (R50E) mutation	blocked the binding; also recorded: effectively blocked	Low			significantly blocked	Low	abolished	blocked	Low
